Experimental findings from patent US6140466, “Zinc finger protein derivatives and methods therefor” (The Scripps Research Institute) are described below.

A word on the Kd: it is a measure of binding affinity in units of concentration. Higher therefore signals lower affinity.

One data set addresses MBP-C7 (synthetic (Zif268 variant, mouse), UniProt P08046). The data set is described as follows: EMSA; 0.1 mM ZnCl2, RT. On the technique in general: A gel shift assay detects complexes by their altered migration in electrophoresis.
The next data set has as its target Zif268 variant C7 (synthetic (Zif268 variant, mouse), UniProt P08046). The data set is described as follows: SPR; 5-fold slower dissociation; Kd in FIG. 11 only. (SPR reads the build-up and loss of mass on a sensor chip optically.)
In the next data set the target is Zif268 fingers 1-3 (Mus musculus, UniProt P08046 SEQ:1-91). The data set is described as follows: SPR; zinc buffer (90 uM ZnCl2, 5 mM DTT); Kd from kon/koff.
A further data set concerns the target (C7 finger)x3 (synthetic (Zif268 variant)). Description: SPR. Particulars: hairpin.
The target of a further data set is TFIIIA zf1-3 (UniProt P03001 P03001:33-123). The data set is described as follows: EMSA; ambient temperature; complete 23 bp sequence not given. Conditions: tags: first three zinc fingers of TFIIIA; label: 32P. The source says:
An experiment was designed to determine whether the binding of this polypeptide to its recognition sequence, placed close to an active RNA polymerase promoter, would inhibit the activity of that promoter in vitro. The following experiments were done to provide such a test system. A 23 bp oligonucleotide (Liao, et al., 1992, supra) containing the 13 bp recognition sequence for zf1–3 was cloned into the polylinker region of plasmid pBluescript SK+ (Stratagene, La Jolla, Calif.), near the promoter sequence for T7 RNA polymerase. The parent plasmid was digested with the restriction enzyme EcoRV and, after dephosphorylation with calf intestinal alkaline phosphatase, the phosphorylated 23 bp oligonucleotide was inserted by ligation with T4 DNA ligase. The ligation product was used for transformation of DH5α *E. coli* cells. Clones harboring 23 bp inserts were identified by restriction digestion of miniprep DNA. The success of cloning was also verified by DNA sequence analysis. The DNA binding activity of the preparation of recombinant zf1–3 was also determined by gel mobility shift analysis with a 56 bp radiolabeled EcoRI/XhoI restriction fragment derived from the cone containing the binding site for zf1–3 and with the radiolabeled 23 bp oligonucleotide. Gel shift assays were done as described (Liao, et al., supra; Fried, et al., *Nucl. Acids., Res.,* 9:6505, 1981). […]

TFIIIA zf1-3, sequence (P03001 33-123, one chain of several): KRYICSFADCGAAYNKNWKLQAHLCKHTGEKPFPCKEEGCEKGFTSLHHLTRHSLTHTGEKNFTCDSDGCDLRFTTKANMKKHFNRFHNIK
(C7 finger)x3 (synthetic (Zif268 variant)), sequence (chain, as listed by the source): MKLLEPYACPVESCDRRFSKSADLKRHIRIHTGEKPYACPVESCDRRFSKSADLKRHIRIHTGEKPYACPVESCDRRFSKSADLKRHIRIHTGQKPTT

B1: C7 site probe (dsDNA)
DNA 1: GATGTATGTAGCGTGGGCGTAAGTAATGC
DNA 2: GCATTACTTACGCCCACGCTACATACATC
Regarding B1, in the data set with MBP-C7, the equilibrium dissociation constant (Kd) was determined as 31.8 nM.
On to CCTGCGTGGGCGCCCTTTTGGGCGCCCACGCAGG (structured_DNA) [Z268N consensus hairpin], for which, in the data set with Zif268 variant C7, the binding signal was 13 fold tighter than Zif268. Also, the Kd with Zif268 fingers 1-3 came out at 6.5 nM.
For the molecule CCTCGCCGCCGCGGGTTTTCCCGCGCCCCCGAGG (structured_DNA) [GCG-GCG-GCG hairpin], in the data set with (C7 finger)x3, the Kd turned out to be 9 nM.

B2: zf1-3 binding site oligo (23 bp containing 13 bp site) (dsDNA)
DNA 1: TGGATGGGAGACC
DNA 2: GGTCTCCCATCCA
For B2, the binding result with TFIIIA zf1-3 is given as “binds”.
